# Laboratory results as given in the nanobody polyreactivity screen of Harvey et al. (2022).
# Assay: yeast display, Sf9 membrane polyspecificity reagent, FACS + sequencing; frameworks hold sequencing errors
# How it was run: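 Galactose induction of a Saccharomyces cerevisiae BJ5465 synthetic nanobody display library ran 36–48 hours. The cells were then stained for 1 hour at 4 °C with 10% biotinylated, detergent-solubilized Sf9 membrane reagent, pulled down on streptavidin microbeads and FACS-sorted into low and high (top ~1%) gates on expression and reagent-binding fluorescence. Labels for polyreactivity follow the gate of origin.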
row,Sequence,polyreactivity (PSR sort gate)
1,QVQLQESGGGLVQAGGSLRLSCAASGYISTFSAEMGWYRQAPGKERELVASIAPGCTTSYADSVKGRFTISRDNAKNTVYLQMNSLKPEDTAVYYCAVDYTLPASFGYWGQGTQVTVSS,high polyreactivity
2,QVQLVETGGGLVQAGRSLRLSCAASGSNFRSYARGWYRQAPGKERELVAAITSSSGSTDYADSVKGRFTSSRDNAKNTVYLQMNSLKPEDTAVYYCNAPYWKSRFRAYYHWGQGTQVTVSS,high polyreactivity
3,QVQLVESGGGLVEAGGSLRLSCAASGIFRYYAMGWYRQAPGKERELVASITGGGSTYYADSVKGRFTISRDNAKNTVYLQMNSLKPEDTAVYYCNTAGAYYRWTPYYYWGQGTQVTVSS,high polyreactivity
4,QVQLVESGGGLVQAGGSLRLSCAASGRIFSYKAMGWYRQAPGKERELVAAISFSTTSTYYADSVKGRFTISRDNAKNTVYLQMYSLKPEDTAVYYCNTPGLPIDSEYDYWGQGTQVTVSS,low polyreactivity
5,QVQLVESGGGLVQAGGSLRLSCAASGFIFPEYAMGWYRQAPGKERELVAAINWSGGNTYYADSVKGRFTISRDNAKNTVYLQMNSLKPEDTAVYYCNVDEWVTDDDYWGQGTEVTVSS,low polyreactivity
6,QVQLVESGGGLVQAGGSLRLSCAASGSIFPHYAMGWYRQAPGKERELVATIRSRSGSTYYADSVKGRFTISRDNAKNTVYLQMNSLKPEDTAVYYCAKDNSLFQRDYWGQGTQVTVSS,low polyreactivity
7,QVQLVESGGGLVQAGGSLRLSCSASGSIFWYNAMGWYRHAPGKERELVAAISRSGSRTYYADSVKGRFTISRDYAKNTVYLQMNSLKPEDTAVYYCARVRPRVLYFVLHYDYWGQGTQVTVSS,high polyreactivity
8,QVQLEESGGGLVQAGGSLRLSCAASGSIFSYNSMGWYRQAPGKDREFVATIDWRDGSTYYADSVKGRFTISRDNGKNTVYLQMNSMKPEDTAVYYCATDYIVVEDYYWGQGTQVTVSS,high polyreactivity
9,QVQLVESGGGLVQAGGSLRLSCAASGSIFYHNTMGWYIQAPGKERELITYYADSVKGRFTISRDNAKNTVYLQMNSLKPEDTAVYYCAASPVSRTGPGDYDFWGQGTQVTVSS,low polyreactivity
10,QVQLVESGGGLVQAGGSLRLSCAASGNIFGWNDMGWCRQAPGKEWEVVAAISWTGDSTYDADSVKGRFTISRDNAKNTVYLQMNSLKPEDTAVYYGAADTPTLQYLTPRSEFDAWGQGTQVTVSS,low polyreactivity
11,QVQLVESGGGLVQAGGSLRLSCAASGFIFSGYAMGWYRQAPGKERELVATISGSGGSTYYADSVKGRFTISRDNAKNTVYLQMNSLKPEDTAVYYCNALYASSVRHKVTYDYWGQGTQVTVSS,high polyreactivity
12,QVQLVESWGGLVQAGGILRLSCASYGFIFPIYAMGWYIQAPGKESELVALIRSGGSTYYADSVKGRFTISRDNAKNTVYLQMHSRKPEDTAVYYCKAKRYGMWGAAGRVGYDYWGQGTQVTVSS,high polyreactivity
13,QVQLVESGGGLVQAGGSLRLICAASGYTFGGYAMGWYRQAPGKERVLVAAISTDGDSTFYADSVKGRFTISRDNAKNTVYLQMNSLKPEDTAVYYCAASVNTGSVTEYDYWGQGTQVTVSS,low polyreactivity
14,QVQLVESGGGLVQAGGSLRLSCAASGFILYGNTMGWYRHAPGKDRELVAAISWSGGNTRYADSVKGRFTISRDNAKNTVYLQMNSLKQDDTAVYYCAAYSKYVLSIRRDYWGQGTQVTVSS,low polyreactivity
15,QVQLVESGGGLVQAGGSLRLSCAASGSIFYYAMGWYRQAPGKERELVATITRRGGRTHYADSVKGRFTLSRDNAKNTVYLQMNSLKPEDTAVYYCAADSYSYRYYYWGQGTQVTVSS,high polyreactivity
16,QVQLVESGGGLVQAGGSLRLSCAASGSIFPYYDMGWYRQAPGKERELVAAITSSGSTFYADSVKGRFTISRDNAKNTVYLQMNSLKPEVTAVYSCNTRDIRVRPYDYWGQGTQVTVSS,low polyreactivity
17,QVQLVESGGGLVQAGGSLRLSCAASGRTFDPYAMGWYRQAPGKERELVAAITSGDDTYYADSVKGRFTISRDTAKNTVYLQMNSLKPEETAVYFCAAASFTPDYYSHDYWGQGTQVTVSS,low polyreactivity
